This note sets out measurements from PMC314469, “Protein Interaction Networks by Proteome Peptide Scanning” (PLoS Biology, 2004).

Experiment in all cases: SPOT array
The target of assay [1] is T1, Yfr024 SH3 (LSB3_YEAST), P43603.
T1 chain: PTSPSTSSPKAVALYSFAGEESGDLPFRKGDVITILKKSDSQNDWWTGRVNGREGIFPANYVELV

Assay [2] addresses T2, Boi2 SH3 (BOI2_YEAST), P39969.
T2 chain: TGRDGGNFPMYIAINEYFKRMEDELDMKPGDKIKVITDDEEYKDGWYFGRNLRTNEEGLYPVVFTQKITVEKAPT

For assay [3], the target named is T3, Rvs167 SH3 (RV167_YEAST), P39743.
T3 chain: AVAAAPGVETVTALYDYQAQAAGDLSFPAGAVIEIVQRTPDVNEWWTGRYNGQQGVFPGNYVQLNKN

For assay [4], the target named is T4, Myo5 SH3 (MYO5_YEAST), Q04439.
T4 chain: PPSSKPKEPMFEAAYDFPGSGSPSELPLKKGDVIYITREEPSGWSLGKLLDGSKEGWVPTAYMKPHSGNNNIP

Assay [5] concerns the target Sho1 SH3 (SHO1_YEAST), P40073.
The target of assay [6] is T5, Boi1 SH3 (BOI1_YEAST), P38041.
T5 chain: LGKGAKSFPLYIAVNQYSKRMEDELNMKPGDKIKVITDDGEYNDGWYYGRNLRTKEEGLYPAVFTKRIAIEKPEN

The target in assay [7] is T6, Yhr016c SH3 (YSC84_YEAST), P32793.
T6 chain: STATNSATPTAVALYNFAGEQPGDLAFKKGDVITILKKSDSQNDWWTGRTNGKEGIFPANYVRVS

Sho1 SH3 (SHO1_YEAST), P40073, sequence (P40073 295-366): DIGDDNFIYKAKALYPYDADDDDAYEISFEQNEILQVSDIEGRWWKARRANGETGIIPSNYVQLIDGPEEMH

With DLQKKYEPSPPATH [YCR069W 34-47], the normalised SPOT signal, Boehringer light units (BLU); mean over the file's lines of this peptide in assay [1] was found to be 0; in assay [2], 2.8; in assay [3], 40.7; in assay [4], 225; in assay [5] it was 32.6; in assay [6] it was 114. Besides, the normalised SPOT signal, Boehringer light units (BLU); mean over the file's lines of this peptide in assay [7] is 37.1.

In the case of DLDWRKIPFLPKEI [YLR427W 487-500], the normalised SPOT signal, Boehringer light units (BLU); mean over the file's lines of this peptide in assay [1] was found to be 790; in assay [2], 26.3; in assay [3] it was 177; in assay [4], 250; in assay [5], 1070; in assay [6] it was 2880. The normalised SPOT signal, Boehringer light units (BLU); mean over the file's lines of this peptide in assay [7] worked out at 154.

As to DKKKKKYPRKPKKN [YDR485C 332-345], the normalised SPOT signal, Boehringer light units (BLU); mean over the file's lines of this peptide in assay [1] was 245; in assay [2], 0; in assay [3], 66.5; in assay [4] it was 532; in assay [5], 114; in assay [6] it was 223. This molecule also registered a normalised SPOT signal, Boehringer light units (BLU); mean over the file's lines of this peptide in assay [7] of 15.7.

Consider DNELKDEPEPPNLI [YGR093W 206-219], for which the normalised SPOT signal, Boehringer light units (BLU); mean over the file's lines of this peptide worked out at 0 in assay [1]; 26 in assay [2]; 25.3 in assay [3]; 179 in assay [4]; 32.3 in assay [5]; 17.2 in assay [6]. Moreover, the normalised SPOT signal, Boehringer light units (BLU); mean over the file's lines of this peptide in assay [7] was 16.3.

Turning to DIPLKQVPENPMPT [YIL155C 374-387], the normalised SPOT signal, Boehringer light units (BLU); mean over the file's lines of this peptide in assay [1] was 13.5; in assay [2], 12.3; in assay [3], 26; in assay [4], 62.9; in assay [5] it was 15; in assay [6], 110. Besides, in assay [7], the normalised SPOT signal, Boehringer light units (BLU); mean over the file's lines of this peptide turned out to be 4.6.

DIPRRYIPITPADL [YMR126C 79-92]: the normalised SPOT signal, Boehringer light units (BLU); mean over the file's lines of this peptide turned out to be 748 in assay [1]; 52.6 in assay [2]; 956 in assay [3]; 33 in assay [4]; 33.7 in assay [5]; 14100 in assay [6]. The same molecule yielded a normalised SPOT signal, Boehringer light units (BLU); mean over the file's lines of this peptide in assay [7] of 116.

For the molecule DLSLRYAPNLPRVI [YLL048C 1385-1398], the normalised SPOT signal, Boehringer light units (BLU); mean over the file's lines of this peptide in assay [1] is 156; in assay [2] it was 18.8; in assay [3], 41.9; in assay [4], 250; in assay [5], 35; in assay [6] it was 352. Further, in assay [7], the normalised SPOT signal, Boehringer light units (BLU); mean over the file's lines of this peptide amounted to 19.3.

Consider DPSDKSLPQQPFHK [YJR006W 304-317], for which the normalised SPOT signal, Boehringer light units (BLU); mean over the file's lines of this peptide in assay [1] came out at 39.2; in assay [2], 25.2; in assay [3] it was 55.1; in assay [4], 192; in assay [5], 397; in assay [6], 0. Moreover, in assay [7], the normalised SPOT signal, Boehringer light units (BLU); mean over the file's lines of this peptide was 36.7.

DKIFKTDPNEPAND [YDL174C 572-585]: the normalised SPOT signal, Boehringer light units (BLU); mean over the file's lines of this peptide worked out at 0 in assay [1]; 26.3 in assay [2]; 47.5 in assay [3]; 99.1 in assay [4]; 16.7 in assay [5]; 66.5 in assay [6]. This molecule also displayed a normalised SPOT signal, Boehringer light units (BLU); mean over the file's lines of this peptide in assay [7] of 14.1.

Turning to DILKKESPDVPLFD [YBR155W 341-354], the normalised SPOT signal, Boehringer light units (BLU); mean over the file's lines of this peptide worked out at 0 in assay [1]; 17.3 in assay [2]; 0 in assay [3]; 146 in assay [4]; 26.9 in assay [5]; 170 in assay [6]. Moreover, in assay [7], the normalised SPOT signal, Boehringer light units (BLU); mean over the file's lines of this peptide was determined as 18.3.

As for DQLNRLLPNLPEEE [YJR090C 138-151], the normalised SPOT signal, Boehringer light units (BLU); mean over the file's lines of this peptide in assay [1] came to 12300; in assay [2] it was 18.1; in assay [3] it was 682; in assay [4], 47.5; in assay [5], 12000; in assay [6], 106. Besides, in assay [7], the normalised SPOT signal, Boehringer light units (BLU); mean over the file's lines of this peptide turned out to be 23200.

For DLKKKYAPDPPITH [YNR028W 35-48], the normalised SPOT signal, Boehringer light units (BLU); mean over the file's lines of this peptide in assay [1] turned out to be 16.5; in assay [2], 21; in assay [3], 27.7; in assay [4] it was 186; in assay [5] it was 4.2; in assay [6], 164. This molecule also registered a normalised SPOT signal, Boehringer light units (BLU); mean over the file's lines of this peptide in assay [7] of 14.6.

For the molecule DKFIKLIPMRPVLI [YDR479C 286-299], the normalised SPOT signal, Boehringer light units (BLU); mean over the file's lines of this peptide was determined as 1380 in assay [1]; 0.3 in assay [2]; 39 in assay [3]; 253 in assay [4]; 112 in assay [5]; 117 in assay [6]. In addition, the normalised SPOT signal, Boehringer light units (BLU); mean over the file's lines of this peptide in assay [7] stood at 95.2.

For DIKTRSVPKIPSIE [YBR163W 320-333], the normalised SPOT signal, Boehringer light units (BLU); mean over the file's lines of this peptide amounted to 48300 in assay [1]; 23.2 in assay [2]; 52200 in assay [3]; 102 in assay [4]; 31.3 in assay [5]; 344 in assay [6]. For the same molecule, the normalised SPOT signal, Boehringer light units (BLU); mean over the file's lines of this peptide in assay [7] worked out at 36000.
